Experimental data taken from publication PMC12215968.

Target: T1, nucleoside-disphosphate kinase B (NME2) (human (endogenous in HEK293)), P22392
T1 chain: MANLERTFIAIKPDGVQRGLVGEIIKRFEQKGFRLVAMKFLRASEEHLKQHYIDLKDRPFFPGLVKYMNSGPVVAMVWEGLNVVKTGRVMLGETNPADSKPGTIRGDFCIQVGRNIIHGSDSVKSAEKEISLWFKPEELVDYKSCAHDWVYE
Experiment: cross-linking; in vivo: intact 293 HBTH-CSN2 cells, 1 mM TSTO in PBS pH 7.4, 1 h, room temperature; SEC-HpHt separation of peptides, LC-MSn
Settings: remark: other sources report otherwise

stoichiometry N: 3
B1: nucleoside-disphosphate kinase B (NME2), P22392 1-152 (natural protein)
chain: T1 chain
